T1: CHO-S expressed hOX40L (Homo sapiens, UniProt P23510)
T1 construct: CHO-S cells (optionally transfected with full length human OX40L); expressed in transfected cells
T1 sequence (P23510 1-183): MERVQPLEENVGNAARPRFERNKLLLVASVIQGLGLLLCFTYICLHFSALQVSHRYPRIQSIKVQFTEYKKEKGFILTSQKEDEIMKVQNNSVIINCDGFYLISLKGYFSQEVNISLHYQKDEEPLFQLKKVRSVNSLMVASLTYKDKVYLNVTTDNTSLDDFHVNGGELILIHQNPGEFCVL

B1: 2D10 (hybridoma): murine/human chimeric anti-OX40L antibody purified from hybridoma supernatant (antibody, V domains shown)
VH: EVQLVESGGGLVQPGGSLRLSCAASGFTFSNYAMNWVRQAPGKGLEWVSTISGSGGATRYADSVKGRFTISRDNSRNTVYLQMNSLRVEDTAVFYCTKDRLIMATVRGPYYYGMDVWGQGTTVTVSS
VL: DIQMTQSPSSLSASVGDRVTITCRASQSISSYLNWYQQKPGKAPNLLIYAASSLQSGVPSRFSGSGSETDFTLTISSLQPEDFATYYCQQSHSVSFTFGPGTKVDIK
B2: 9H04 (hybridoma): anti-OX40L antibody from hybridoma; VH Seq ID No:66, VL Seq ID No:80 (antibody, V domains shown)
VH: QVQLVESGGGLVKPGGSLRLSCAASRFTLSDYYMTWIRQAPGKGLEWVSYISSSGNTIYYADSVKGRFTISRDNAKNSLYLQMNSLRAEDTAVYYCARDLSGSYWDYYYGMDVWGQGTTVTVSS
VL: AIQLTQSPSSLSTSVGDRVTIACRASQGINNALAWYQQKPGKAPKLLIYDASSLESGVPSRFSGSGSGTDFTLTISSLQPEDFATYYCQQFNSYPRTFGQGTKVEIK
modifications: 09H04 - VH Amino Acid Sequence; 09H04 - VL Amino Acid Sequence
B3: 10A07 (hybridoma): murine/human chimeric anti-OX40L antibody purified from hybridoma supernatant (antibody, V domains shown)
VH: EVQLVESGGVLVQPGGSLRLSCAASGFTFSSYIMTWVRQAPGKGLEWVSGISGSGGGTYYADSMKGRFTISRDNSKNTLYLQMNSLRVEDTAVYYCAKDRLGPITLVRGGYYYGMDVWGQGTTVTVSS
VL: DIQMTQSPSSLSASVGDRVTITCRASQSISDYLNWYQQKPGKAPKFLIYAASSLQSGVPSRFSGSGSGTDFTLTVSSLQPEDFATYYCQQSYSTPRTFGQGTRVEIK
B4: 10A07 (human): fully human anti-human OX40L monoclonal antibody; VH Seq ID No:2, VL Seq ID No:16 (antibody, V domains shown)
VH: EVQLVESGGVLVQPGGSLRLSCAASGFTFSSYIMTWVRQAPGKGLEWVSGISGSGGGTYYADSMKGRFTISRDNSKNTLYLQMNSLRVEDTAVYYCAKDRLGPITLVRGGYYYGMDVWGQGTTVTVSS
VL: DIQMTQSPSSLSASVGDRVTITCRASQSISDYLNWYQQKPGKAPKFLIYAASSLQSGVPSRFSGSGSGTDFTLTVSSLQPEDFATYYCQQSYSTPRTFGQGTRVEIK
modifications: 10A07 - VH Amino Acid Sequence; 10A07 - VL Amino Acid Sequence

Key:
[1] = system: Rhesus Macaque Graft versus Host Disease (GvHD) model; conditions: Example 9, post-HSCT prophylaxis, Rhesus macaque (FIG. 7)
Excerpt: The effectiveness of antibody 2D10 IgG4PE as a monotherapy prophylactic for the prevention of GvHD was examined in a Rhesus Macaque model of haploidentical hematopoietic stem cell transplantation (HSCT).
All transplants were between half-sibling pairs that are mismatched at one MHC haplotype (“haploidentical-HCTs”). Recipient animals had irradiation based pre-myeloablative pre-transplant conditioning using a linear accelerator. Dose rate: 7cGy/min. Dose 1020 cGy given in 4 fractions. The leukapheresis donor animal underwent GCSF mobilisation and underwent leukapheresis using a Spectra Optia apheresis machine.
2D10 IgG4PE was dosed at 10 mg/kg i.v. according to a planned dosing schedule to take place on Day −2, Day+5, Day+12, Day+19, Day+26, Day+33, Day+40, Day+47 post-transplant.
Samples were taken during the course of the study to monitor donor chimerism (Table 4) and white blood cell counts. The primary end point was based on survival, with a survival to 15 days deemed to be a sign of successful prophylactic therapy (and compared to the documented survival of 6-8 days with no prophylaxis; Miller et al. 2010, supra). Though full pathology and histology with GvHD grading scores, markers of T-cell proliferation and activation (such as Ki-67 and granzyme B) and gene array analysis are planned, they were not available for inclusion at the time of drafting.
Scoring of clinical symptoms was based on observational assessments and clinical chemistry, classified according to the criteria set out in Table 5.
A further rhesus macaque GvHD study was conducted to determine the effect of combined post-HSCT prophylaxis with 2D10 IgG4PE and rapamycin. The study was performed as described in Example 7, with dosing as follows: 2D10 IgG4PE was administered i.v. at 10 mg/kg on Day −2, Day +5, Day+12, Day+19, Day+26, Day+33, Day+40, Day+47 and Day+56 post-transplant. Rapamycin was administered at a loading dose of 0.1 mg/kg i.m. on Day −14, followed by daily i.m. maintenance doses of 0.025 mg/kg until the scheduled termination of the study at Day+100. Rapamycin dosing was adjusted to maintain serum trough levels within the range 5-15 ng/mL.
This was a cohort study in NHP designed to determine the clinical, immunologic and molecular outcomes of OX40L blockade during allogeneic HCT. Two cohorts of transplant recipients were studied: (1) Allogeneic transplants using the OX40L-blocking human IgG4-PE antibody 1D05 (described as ‘KY1005’ in this Example 11) as monotherapy for GVHD prophylaxis (abbreviated as ‘KY1005’; n=4). KY1005 was given at a dose of 10 mg/kg starting on Days −2 and then once weekly until discontinuation on Days 54 (FIG. 8E). […] (2) Allogeneic transplants using KY1005 in combination with Sirolimus (Rapamycin) ([…]) for GVHD prophylaxis (abbreviated as ‘KY1005/Siro’; n=5). KY1005 was given at a dose of 10 mg/kg starting on Days −2 and then once weekly until discontinuation on Days 54 (FIG. 8P). […] These two OX40L-blockade groups were compared to the following cohorts, aspects of which have been described previously (Furlan et al., 2015; Furlan et al., 2016; Miller et al., 2010) (1) Autologous transplants (abbreviated as ‘Auto’, n=6 for clinical and flow cytometric data and n=4 for transcriptomic analysis) (2); Allogeneic transplants with no GVHD prophylaxis (abbreviated as‘No Rx’, n=11 for clinical and flow cytometric data and n=4 for transcriptomic analysis). (3) Allogeneic transplants using Sirolimus monotherapy for GVHD prophylaxis (LC laboratories, abbreviated as ‘Siro’, n=11 for flow cytometric analysis, n=4 for transcriptomic analysis).

recombinant hOX40L = target: T2, recombinant hOX40L (Homo sapiens, UniProt P23510); experiment: Surface plasmon resonance, apparent affinity to human OX40L; type: binding; conditions: SPR, 25° C.; CNROR = Cannot resolve off-rate
T2 construct: cDNA encoding the extracellular domain of human OX40L was cloned into a pREP4 expression plasmid; isoleucine zipper (N); made in house; host or cells: FreeStyle CHO-S (transient)
T2 sequence (P23510 with tags, fused parts or gaps): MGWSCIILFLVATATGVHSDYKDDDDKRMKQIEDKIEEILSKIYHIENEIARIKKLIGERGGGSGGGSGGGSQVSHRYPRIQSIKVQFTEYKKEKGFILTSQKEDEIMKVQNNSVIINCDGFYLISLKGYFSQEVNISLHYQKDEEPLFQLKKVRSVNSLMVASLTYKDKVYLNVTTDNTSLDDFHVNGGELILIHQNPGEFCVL
Experimental: (§1) SPR analysis was carried out using the ProteOn™ XPR36 Array System (BioRad). Anti-mouse IgG (GE Healthcare BR-1008-38) was immobilised on a GLM biosensor surface using amine coupling, the surface was then blocked using 1 M ethanolamine. Test antibodies were captured on this surface and recombinant hOX40L (human and rhesus) were used at a single concentration of 256 nM, binding sensorgrams were double referenced using a buffer injection (i.e. 0 nM) to remove baseline drift and injection artefacts. Apparent affinities for the OX40L-antibody interaction were determined using the 1:1 model inherent to the ProteOn XPR36 analysis software. The assay was run using HBS-EP (Teknova) as running buffer and carried out at 25° C.

CHO-S expressed hOX40L = target: T1, CHO-S expressed hOX40L; experiment: Binding to CHO-S expressed hOX40L and receptor neutralisation (FACS); type: cell-based
Experimental: CHO-S cells expressing hOX40L or untransfected CHO-S cells, diluted in FACS buffer (PBS+1% w/v BSA+0.1% w/v NaN3) were distributed to a 96 well V-bottom plate (Greiner) at a density of 1×10^5 cells per well. Cells were washed with 150 μL of PBS and centrifuged at 300×g for 3 min. Supernatant was aspirated and 150 μL of PBS added. This wash step was repeated.
25 μL of hybridoma supernatant or purified antibody from hybridoma supernatant diluted in FACS buffer was added to the washed cells and incubated for 10-15 minutes. Reference Antibody or mouse IgG1 control antibody (Sigma) were diluted in FACS buffer to 20 μg/mL and 25 μL added to cells. 25 μL of human OX40R Fc (in-house) diluted to 1000 ng/mL in FACS buffer were then added to wells. Cells were incubated at 4° C. for 30 minutes.
To detect antibody and receptor binding, 50 μL of Goat anti-human IgG-PE (Jackson ImmunoResearch) and APC anti-mouse IgG (Jackson ImmunoResearch) diluted 1 in 500 in FACS buffer was added to the cells. Cells were incubated 30 minutes at 4° C. in the dark.
To fix cells 100 μL 2% v/v paraformaldehyde was added and cells incubated for 30 minutes at 4° C., cells were pelleted by centrifugation 300×g and the plates and resuspended in 50 μL of FACS buffer. PE and APC signal intensity (geomean) was measured by flow cytometry using a BD FACS Array instrument.
% of control binding was calculated using geomean fluorescence as described in equation 1 where total binding was defined as reference antibody at 10 μg/mL and non-specific binding as mouse IgG1 antibody at 10 μg/mL. % receptor binding was calculated using Equation 3.

Rhesus monkey OX40L = experiment: Surface plasmon resonance, apparent affinity to rhesus OX40L; type: binding, Rhesus (Macaca mulatta); conditions: SPR, 25° C.; CNROR = Cannot resolve off-rate
Sequence of Rhesus monkey OX40L (as listed by the source): as the sequence (P23510 with tags, fused parts or gaps) above, with R77Q, K95E counted along it
Experimental: as §1

Molecule	median survival time, MST [1]	Apparent Affinity hOX40L (nM) (recombinant hOX40L)	FACS Binding (CHO-S expressed hOX40L)	Apparent Affinity RhsOX40L (nM) (Rhesus monkey OX40L)
CO[C@H]1C[C@@H]2CC[C@@H](C)[C@@](O)(O2)C(=O)C(=O)N2CCCC[C@H]2C(=O)O[C@H]([C@H](C)C[C@@H]2CC[C@@H](O)[C@H](OC)C2)CC(=O)[C@H](C)/C=C(\C)[C@@H](O)[C@@H](OC)C(=O)[C@H](C)C[C@H](C)/C=C/C=C/C=C/1C [rapamycin, rapamycin (sirolimus), reference compound]	17 days	–	–	–
B1	–	CNROR	YES	CNROR
B2	–	–	YES	–
B3	–	CNROR	YES	CNROR
B4	–	CNROR	–	CNROR

Source: US20240122985A1, “ANTIBODIES, COMBINATIONS COMPRISING ANTIBODIES, BIOMARKERS, USES & METHODS” (KYMAB LIMITED, priority 2016, published 2024)
